# Reference: patent US9664676B2, “RNA sequences that induce fluorescence of small molecule fluorophores” (Cornell University, priority 2013, dated 2017)
# *1 amine or outer side, *2 acyl side, *3 side chain or, on linkers, in order; H or OH if unused. Where a SMILES comes first, the peptide text is derived from it. Bridges are numbered along the chain shown (N, C = ends). Roman numbers before positions name the chains, in order. [ ]: non-standard residue; d: D form. Actinocin(9to1) = Cc1c2oc3c(C)ccc(C(=O)[*:1])c3nc-2c(C(=O)[*:2])c(N)c1=O; NMeV = CN[C@H](C(=O)O)C(C)C; Sar = CNCC(=O)O
# How the values were obtained:
# COS-7 cells [1] = assay: Analysis of DFHBI cell permeability; assay type: in vitro ADME; conditions: mammalian cells, 20 μM DFHBI
# Experimental: Analysis of DFHBI Cell Permeability: COS-7 cells were transfected with pCDNA-60CGG-Spinach2. 24 h after transfection, cells were imaged in medium supplemented with 25 mM HEPES, 5 mM MgSO4, 1 μg/ml Hoechst 33342 and 20 μM DFHBI. Images were acquired for Hoechst and Spinach2 signals every 5 min for 1 h for 20 cells. All signals were first normalized to area and then normalized to the highest signal for a given nucleus to determine the time for maximal signal to be reached.
# COS-7 cells [2] = assay: Live cell imaging of (CGG)60-Spinach / (CGG)60-Spinach2 in COS-7 cells; assay type: cell-based; conditions: at 8 h, 1 μg/ml
# Experimental: Transfection of COS-7 Cells and Live Cell Imaging: COS-7 cells (ATCC-CRL-1651) were cultured and passaged in DMEM supplemented with 50 units of penicillin and 50 μg of streptomycin per milliliter. […] Cells were imaged in CO2-independent medium (Invitrogen) supplemented with L-glutamine. At 30 min-1 h before imaging, medium was supplemented with 25 mM HEPES, 5 mM MgSO4, 1 μg/ml Hoechst 33342 (when appropriate) and 20 μM DFHBI or vehicle. […] Spinach was imaged with a filter cube typically used for fluorescein or EGFP, with a sputter-coated excitation filter 470/40 nm, dichroic mirror 495 nm (long-pass), and emission filter 525/50 (Chroma Technology). DsRed-Max and mCherry were imaged using a filter cube typically used for Texas Red, with a sputter coated excitation filter 560/40 nm and emission filter 630/75 nm (Chroma Technology). Background intensity was subtracted from all pixel intensity measurements. Image analyses were completed with NIS-Elements AR 3.2 (Nikon). Drug treatments were carried out as specified. […] DMSO was added to a final concentration of 0.1% for vehicle treatments. […] After 2 h, the transfection medium was replaced with imaging medium containing DFHBI.
# E. coli = assay: Fluorescence measurements of E. coli (colonies, suspensions) expressing aptamers with DFHBI-1T; assay type: cell-based, Escherichia coli; conditions: tRNA fusions, suspension/plate reader, DFHBI-1T
# Experimental: Fluorescence Measurements of E. coli: Fluorescence measurements of E. coli were done in two general ways. To assess fluorescence brightness of bacterial colonies on a plate Acella or LMG194 strains cells were transferred to a new LB/agar dish with respective antibiotic and allowed to grow overnight at 37° C. Typically four to six colonies for the same aptamer were grown on the same plate to provide statistical data. These plates already contained 40 μM DFHBI-1T (or DFHBI) and 0.2% arabinose (in case of LMG194 strain). When Acella strain was used, 1 mM IPTG was added the next morning and incubation was continued for four to six hours more at 37° C. Bacterial colonies were then imaged under ChemiDoc MP imager as described above and images were processed in ImageJ program.
# To measure fluorescence of bacterial cell suspensions BL21 Star (DE3) (Life Technologies) strain and pET28c-based expression plasmids were used. This combination provided the strongest signal. Fresh colony was inoculated into LB media with kanamycin and allowed to grow overnight at 37° C. to OD600 0.4. The cells were then induced with addition of 1 mM IPTG for 2-4 h at 37° C. After induction, cells were normalized for cell density and incubated with 400 μM DFHBI-1T. Cells were then measured for total fluorescence using a Genios Pro plate reader at 465 nm excitation and 535 nm emission. All values were normalized for slightly different excitation and emission spectra of Spinach2 and Broccoli.
# [3] = In-gel imaging of tBroccoli and tdBroccoli (DFHBI-1T / SYBR Gold staining); assay type: biochemical; conditions: in vitro transcribed tBroccoli and tdBroccoli in PAGE gel
# Experimental: In-Gel Imaging of Spinach-Containing RNAs: Total bacterial RNA was purified using Trizol LS reagent (Life Technologies) following the manufacturer's protocol. Typically, 200-500 ng of total RNA or 50-100 ng of in vitro transcribed RNA was loaded into a well of precast 6% TBE-Urea Gel (Life Technologies) and ran at 270-300 V in 1×TBE buffer. RiboRuler Low Range RNA Ladder (Thermo Scientific) was used as band size standard.
# After the gel was run to completion, the gel was washed 3×5 min with water and then stained for 30 min in 10 μM DFHBI or DFHBI-1T in buffer containing 40 mM HEPES pH 7.4, 100 mM KCl, 1 mM MgCl2. Then gel was imaged using a ChemiDoc MP with 470/30 nm excitation and 532/28 nm emission. Next, to see all the RNA in the sample, the gel was again washed 3×5 min with water followed by staining for 30 min with SYBR Gold (or Green) dye (Life Technologies) diluted 1/10000 in TBE buffer. Then gel was imaged under the same instrument using preset SYBR Gold (or Green) channel (302 nm excitation and 590/110 nm emission). Gel bands intensities were quantified in Image Lab 5.0 software (Bio-Rad). The bacterial 5S rRNA band was used for loading normalization.
# HEK293T cells = assay: Flow cytometry of HEK293T cells expressing 5S rRNA-aptamer fusions with DFHBI-1T; assay type: cell-based; conditions: flow cytometry
# Experimental: FIG. 24 illustrates the quantification of the flow cytometry analysis of aptamers expression in mammalian cells. To compare specific aptamers' brightness in mammalian cells, HEK293T cells were transfected with two plasmids: one expressing aptamer (with or without tRNA) fused to 5S rRNA and another expressing mCherry fluorescent protein. Cells were then treated with 40 μM DFHBI-1T and analyzed on FACSAria III instrument in two channels: green (ex=488 nm; em=525±50 nm) and red (ex=561 nm and em=610±20). For quantification, mean fluorescent signal of the non-negative population was calculated and then mean fluorescent signal of the negative population was subtracted from it to assess specific, not background fluorescent signal. Finally, this number was multiplied by the percentage of the non-negative population to provide the total fluorescent signal of the non-negative population. These numbers are plotted on the bar graph above. Where indicated, cells were also pre-treated with 5 mM MgSO4. Error bar indicates robust SD calculated by FlowJo program, used for data analysis.
# Imaging 5S-tBroccoli and 5S-t-tdBroccoli: Plasmids were transfected into HEK293T cell using FuGENE HD reagent (Promega) following manufacture's protocol. Cell imaging was carried out as previously described for 5S-Spinach (Paige et al., “RNA Mimics of Green Fluorescent Protein,” Science 333(6042): 642-6 (2011), which is hereby incorporated by reference in its entirety) with DFHBI-1T instead of DFHBI. […]
# Flow cytometry was used to quantify average brightness of tRNA. Transfected cells were analyzed in two channels: green (ex=488 nm; em=525±50 nm) and red (ex=561 nm; em=610±20). […] As evidenced from FIG. 14A, 5S-tBroccoli and 5S-tdBroccoli are clearly detectable in the green fluorescence channel and this specific signal appears only upon cells treatment with DFHBI-1T (FIG. 23).
# [4] = In vitro fluorescence activation of DFHBI by 29-1; assay type: biochemical; conditions: bound to DFHBI
# Description: (§1) In Vitro Characterization of Aptamers: dsDNA from the brightest bacterial cells in a library was PCR amplified from eluted plasmids. Truncation, deletion and point mutation mutants were generated from dsDNAs PCR amplified based on respective ssDNA templates (Protein and Nucleic Acid Facility, Stanford University Medical Center). Primers were designed so the PCR product contained T7 promoter sequence. When indicated, dsDNA or ssDNA also contained tRNA scaffold part. PCR products were then purified with PCR purification columns (Qiagen) and in vitro transcribed utilizing AmpliScribe T7-Flash Transcription Kit (Epicenter). RNA was purified using Bio-Spin columns (Bio-Rad), and quantified using both absorbance values and the Quant-iT RiboGreen RNA Assay Kit (Life Technologies).
# All in vitro RNA properties were measured in 40 mM HEPES pH 7.4, 100 mM KCl, 1 mM MgCl2 buffer unless specified separately. […]
# To measure the fluorescence of aptamer-fluorophore complexes, an approach that overcomes potential confounding effects of incomplete RNA folding was used. The fluorescence of RNA-fluorophore complexes can be measured in either of two ways: using “excess RNA” or “excess fluorophore” (Ponchon et al., “Recombinant RNA Technology: the tRNA Scaffold,” Nat. Methods 4(7): 571-6 (2007), which is hereby incorporated by reference in its entirety). […]
# [5] = Fluorescence of aptamers bound to DFHO; assay type: biochemical
# Experimental: To explore this phenomenon further, a library containing over 10 million mutants of this sequence was prepared. Each of the sequences was individually expressed in E. coli bacteria. The bacteria was incubated with the fluorophore DFHO and then sorted based on their fluorescent signal on a fluorescence-activated cell sorting (FACS) instrument. Analysis of the mutations introduced into the 29-1 aptamer allowed prediction of the core sequence necessary for binding DFHO. The possibility that the core binding sequence for DFHO fluorophore is the same as for the DFHBI fluorophore was also considered. The core binding sequence for DFHBI fluorophore is identified in preceding Example 21.
# [6] = Folding measurements with DFHBI-1T; assay type: physicochemical; conditions: in vitro folding assay
# Experimental: Briefly, fluorescence intensity of two solutions were compared: the one having excess of the dye and limiting amount of RNA and the other with excess of RNA and limiting amount of the dye. 1 μM of 1T (or RNA) and 20 μM of RNA (or 1T) was used. Signal from the first condition (limiting RNA) was divided by the signal from the second condition (limiting dye) to determine the fraction folded. To measure folding in a context of different flanking sequences RNA was generated from separate dsDNA fragments. These fragments were PCR amplified to have β-actin, 5S rRNA and 7SK RNA sequences on either or both sides of Broccoli. The folding assay then proceeded as described above.
# (§2) To measure the fluorescence of aptamer-fluorophore complexes, an approach that overcomes potential confounding effects of incomplete RNA folding was used. The fluorescence of RNA-fluorophore complexes can be measured in either of two ways: using “excess RNA” or “excess fluorophore” (Ponchon et al., “Recombinant RNA Technology: the tRNA Scaffold,” Nat. Methods 4(7): 571-6 (2007), which is hereby incorporated by reference in its entirety). In an “excess RNA” experiment enough RNA was added to ensure that all the fluorophore (e.g. 1 μM) is bound to the RNA even if a sizeable portion of the RNA is unfolded. As a result, one can be confident that a 1 μM RNA-fluorophore complex is present, and one can therefore calculate the “molar brightness,” the fluorescence of a specific concentration of RNA-fluorophore complex independent of RNA folding. In the case of excess fluorophore experimental conditions were reversed and 1 μM of RNA was used with a vast excess of the fluorophore. In this case, the amount of RNA-fluorophore complex is highly dependent on the amount of RNA that is folded.
# [7] = In vitro fluorescence activation of DFHBI-1T by 29-1 and truncation mutants; assay type: biochemical; conditions: bound to DFHBI-1T
# Description: as §1
# All in vitro RNA properties were measured in 40 mM HEPES pH 7.4, 100 mM KCl, 1 mM MgCl2 buffer unless specified separately. All values presented are averaging of at least three independent experiments, error bars are standard deviations.
# as §2
molecule,measurement,setting,value
"CC1=NC(=Cc2cc(F)c(O)c(F)c2)C(=O)N1C [DFHBI, 4-(3,5-difluoro-4-hydroxybenzylidene)-1,2-dimethyl-imidazol-5-one]",time to maximal fluorescence (ability to enter cells),COS-7 cells [1],~30 min
"Cc1c2oc3c(C)ccc(C(=O)N[C@@H]4C(=O)N[C@H](C(C)C)C(=O)N5CCC[C@H]5C(=O)N(C)CC(=O)N(C)[C@@H](C(C)C)C(=O)O[C@@H]4C)c3nc-2c(C(=O)N[C@@H]2C(=O)N[C@H](C(C)C)C(=O)N3CCC[C@H]3C(=O)N(C)CC(=O)N(C)[C@@H](C(C)C)C(=O)O[C@@H]2C)c(N)c1=O [actinomycin D] (I: T[dV]P[Sar][NMeV] / II: T[dV]P[Sar][NMeV]; ester I:1-I:C, II:1-II:C; linker I:N-II:N via Actinocin(9to1))",cytotoxicity in COS-7 cells,COS-7 cells [2],cytotoxicity was observed
"dBroccoli: dimeric Broccoli, SEQ ID NO: 12 (nucleic acid, listed as RNA, chemistry not fully specified) GAGACGGUCGGGUCCAUCUGAGACGGUCGGGUCCAGAUAUUCGUAUCUGUCGAGUAGAGUGUGGGCUCAGAUGUCGAGUAGAGUGUGGGCUC",fluorescence of aptamer-expressing E. coli cells,E. coli,approximately twice as fluorescent as cells expressing Broccoli
same,fluorescence compared to monomeric Broccoli,[3],almost twice the fluorescence as the monomeric Broccoli
same,detection in HEK293T cells of 5S fusions without tRNA scaffold,HEK293T cells,can be detected in cells
"29-1: 99-nucleotide RNA aptamer from SELEX-FACS, SEQ ID NO: 3 (nucleic acid, listed as RNA, chemistry not fully specified) GGAGACGCAACUGAAUGAAAUGGUGAAGGAGACGGUCGGGUCCAGGCACAAAAAUGUUGCCUGUUGAGUAGAGUGUGGGCUCCGUAACUAGUCGCGUCAC",emission (em),[4],501 nm
same,excitation (ex),[4],450 nm
same,effect on DFHO fluorescence,[5],significantly enhancing its fluorescence
same,percent folded,[6],81%
same,emission (em),[7],507 nm
same,excitation (ex),[7],472 nm
